Assay results published in publication PMC6009593.

Target: Mre11 (PfuMR complex);Rad50 (PfuMR complex) (Pyrococcus furiosus;Pyrococcus furiosus, UniProt Q8U1N9;P58301 1-426;1-882, |)
Assay: EMSA

Sequence of Mre11 (PfuMR complex);Rad50 (PfuMR complex) (P58301 whole entry, one chain of several): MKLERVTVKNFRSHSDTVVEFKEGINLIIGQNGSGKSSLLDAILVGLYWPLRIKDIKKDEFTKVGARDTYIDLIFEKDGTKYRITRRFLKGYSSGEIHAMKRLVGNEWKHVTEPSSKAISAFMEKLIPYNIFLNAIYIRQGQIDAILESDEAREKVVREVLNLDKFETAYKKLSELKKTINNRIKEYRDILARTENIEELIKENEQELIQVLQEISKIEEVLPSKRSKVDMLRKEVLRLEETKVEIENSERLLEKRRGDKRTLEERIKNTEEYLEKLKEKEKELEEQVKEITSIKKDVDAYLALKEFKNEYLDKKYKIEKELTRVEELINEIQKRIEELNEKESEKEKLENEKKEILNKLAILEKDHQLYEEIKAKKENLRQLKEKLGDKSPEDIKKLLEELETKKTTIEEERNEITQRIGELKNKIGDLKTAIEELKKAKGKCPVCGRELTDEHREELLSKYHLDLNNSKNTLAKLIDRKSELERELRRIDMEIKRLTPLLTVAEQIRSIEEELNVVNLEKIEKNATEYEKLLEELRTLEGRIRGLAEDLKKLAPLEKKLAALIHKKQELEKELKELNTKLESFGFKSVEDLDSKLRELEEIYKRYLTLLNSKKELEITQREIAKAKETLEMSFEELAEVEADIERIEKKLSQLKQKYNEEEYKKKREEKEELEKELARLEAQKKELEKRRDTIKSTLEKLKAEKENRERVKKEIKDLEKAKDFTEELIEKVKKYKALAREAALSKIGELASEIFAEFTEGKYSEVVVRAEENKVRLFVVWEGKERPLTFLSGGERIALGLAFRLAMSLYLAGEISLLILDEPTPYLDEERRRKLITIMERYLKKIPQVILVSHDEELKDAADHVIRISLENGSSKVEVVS

B1: S50/50s (dsDNA)
DNA 1: CTGCAGGGTTTTTGTTCCAGTCTGTAGCACTGTGTAAGACAGGCCAGATG
DNA 2: CATCTGGCCTGTCTTACACAGTGCTACAGACTGGAACAAAAACCCTGCAG
modifications: phosphorothioate bonds at the last 5 linkages of the 3' end of strand 2 (CCCsTsGsCsAsG)
B1: binds.
